The chains are these.
B1: EHEE_rd2_0601 (parent)
chain: TYTYKLTDEEASRRAEDEWRNRGYDVRVRNNNGTWEVEVR

This data set covers variants of B1. As to the kind of experiment: folding stability dG (cDNA display proteolysis); higher = more stable. As to conditions: PBS, room temperature.
Turning to TYTYKLTDEEASGRAEDEWRNRGYDVRVRNNNGTWEVEVR, the “folding stability dG” value was determined as 0.328 kcal/mol.

On to TYTYKLTDEEASNRAEDEWRNRGYDVRVRNNNGTWEVEVR, for which the “folding stability dG” value worked out at 0.767 kcal/mol.

Consider TYTYKLTDEEASKRAEDEWRNRGYDVRVRNNNGTWEVEVR, for which the “folding stability dG” value is 1.45 kcal/mol.

As for TYTYKLTDEEASQRAEDEWRNRGYDVRVRNNNGTWEVEVR, the “folding stability dG” value stood at 0.968 kcal/mol.

Turning to TYTYKLTDEEASVRAEDEWRNRGYDVRVRNNNGTWEVEVR, the “folding stability dG” value came to 0.764 kcal/mol.

As to TYTYKLTDEEASPRAEDEWRNRGYDVRVRNNNGTWEVEVR, the “folding stability dG” value is -0.953 kcal/mol.

For the variant TYTYKLTDEEASTRAEDEWRNRGYDVRVRNNNGTWEVEVR, the “folding stability dG” value stood at 0.582 kcal/mol.

For TYTYKLTDEEASYRAEDEWRNRGYDVRVRNNNGTWEVEVR, the “folding stability dG” value came out at 0.805 kcal/mol.

On to TYTYKLTDEEASSRAEDEWRNRGYDVRVRNNNGTWEVEVR, for which the “folding stability dG” value was found to be 0.553 kcal/mol.

On to TYTYKLTDEEASLRAEDEWRNRGYDVRVRNNNGTWEVEVR, for which the “folding stability dG” value is 1.08 kcal/mol.

Turning to TYTYKLTDEEASRRAEDKWRNRGYDVRVRNNNGTWEVEVR, the “folding stability dG” value was found to be 1.43 kcal/mol.

Take TYTYKLTDEEASRRAEDVWRNRGYDVRVRNNNGTWEVEVR: the “folding stability dG” value is 1.56 kcal/mol.

With TYTYKLTDEEASRRAEDLWRNRGYDVRVRNNNGTWEVEVR, the “folding stability dG” value is 2.04 kcal/mol.

As to TYTYKLTDEEASRRAEDGWRNRGYDVRVRNNNGTWEVEVR, the “folding stability dG” value amounted to 0.757 kcal/mol.

As to TYTYKLTDEEASRRAEDWWRNRGYDVRVRNNNGTWEVEVR, the “folding stability dG” value was found to be 2.44 kcal/mol.

In the case of TYTYKLTDEEASRRAEDSWRNRGYDVRVRNNNGTWEVEVR, the “folding stability dG” value amounted to 1.25 kcal/mol.

With TYTYKLTDEEASRRAEDFWRNRGYDVRVRNNNGTWEVEVR, the “folding stability dG” value was determined as 2.71 kcal/mol.

Consider TYTYKLTDEEASRRAEDIWRNRGYDVRVRNNNGTWEVEVR, for which the “folding stability dG” value is 1.74 kcal/mol.

Consider TYTYKLTDEEASRRAEDRWRNRGYDVRVRNNNGTWEVEVR, for which the “folding stability dG” value turned out to be 1.31 kcal/mol.

With TYTYKLTDEEASRRAEDTWRNRGYDVRVRNNNGTWEVEVR, the “folding stability dG” value was determined as 1.35 kcal/mol.

For TYTYKLTDEEASRRAEDDWRNRGYDVRVRNNNGTWEVEVR, the “folding stability dG” value was determined as 1.21 kcal/mol.

Turning to TYTYKLTDEEASRRAEDCWRNRGYDVRVRNNNGTWEVEVR, the “folding stability dG” value was determined as 2.41 kcal/mol.

With TYTYKLTDEEASRRAEDYWRNRGYDVRVRNNNGTWEVEVR, the “folding stability dG” value came to 3.02 kcal/mol.

With TYTYKLTDEEASRRAEDAWRNRGYDVRVRNNNGTWEVEVR, the “folding stability dG” value is 1.45 kcal/mol.

In the case of TYTYKLTDEEASRRAEDQWRNRGYDVRVRNNNGTWEVEVR, the “folding stability dG” value came out at 1.36 kcal/mol.

For TYTYKLTDEEASRRAEDNWRNRGYDVRVRNNNGTWEVEVR, the “folding stability dG” value came out at 1.03 kcal/mol.

On to TYTYKLTDEEASRRAEDHWRNRGYDVRVRNNNGTWEVEVR, for which the “folding stability dG” value turned out to be 1.83 kcal/mol.

Take TYTYKLTDEEASRRAEDMWRNRGYDVRVRNNNGTWEVEVR: the “folding stability dG” value turned out to be 2.03 kcal/mol.

In the case of TYTYKLTDEEAVRRAEDEWRNRGYDVRVRNNNGTWEVEVR, the “folding stability dG” value amounted to 2.17 kcal/mol.

On to TYTYKLTDEEAGRRAEDEWRNRGYDVRVRNNNGTWEVEVR, for which the “folding stability dG” value worked out at 1.14 kcal/mol.

With TYTYKLTDEEAWRRAEDEWRNRGYDVRVRNNNGTWEVEVR, the “folding stability dG” value is 0.977 kcal/mol.

For the variant TYTYKLTDEEAFRRAEDEWRNRGYDVRVRNNNGTWEVEVR, the “folding stability dG” value stood at 1.08 kcal/mol.

Take TYTYKLTDEEAMRRAEDEWRNRGYDVRVRNNNGTWEVEVR: the “folding stability dG” value turned out to be 1.95 kcal/mol.

For TYTYKLTDEEATRRAEDEWRNRGYDVRVRNNNGTWEVEVR, the “folding stability dG” value is 1.51 kcal/mol.

Turning to TYTYKLTDEEANRRAEDEWRNRGYDVRVRNNNGTWEVEVR, the “folding stability dG” value was -0.531 kcal/mol.

For TYTYKLTDEEALRRAEDEWRNRGYDVRVRNNNGTWEVEVR, the “folding stability dG” value amounted to 1.39 kcal/mol.

TYTYKLTDEEAPRRAEDEWRNRGYDVRVRNNNGTWEVEVR: the “folding stability dG” value is -0.764 kcal/mol.

Take TYTYKLTDEEAQRRAEDEWRNRGYDVRVRNNNGTWEVEVR: the “folding stability dG” value is 0.072 kcal/mol.

For the variant TYTYKLTDEEAHRRAEDEWRNRGYDVRVRNNNGTWEVEVR, the “folding stability dG” value is -0.243 kcal/mol.

Consider TYTYKLTDEEARRRAEDEWRNRGYDVRVRNNNGTWEVEVR, for which the “folding stability dG” value worked out at 0.481 kcal/mol.

In the case of TYTYKLTDEEAIRRAEDEWRNRGYDVRVRNNNGTWEVEVR, the “folding stability dG” value worked out at 0.918 kcal/mol.

As to TYTYKLTDEEAYRRAEDEWRNRGYDVRVRNNNGTWEVEVR, the “folding stability dG” value worked out at 0.95 kcal/mol.

TYTYKLTDEEAERRAEDEWRNRGYDVRVRNNNGTWEVEVR: the “folding stability dG” value is -0.128 kcal/mol.

For the variant TYTYKLTDEEAKRRAEDEWRNRGYDVRVRNNNGTWEVEVR, the “folding stability dG” value amounted to 0.553 kcal/mol.

As to TYTYKLTDEEASRRAEDEARNRGYDVRVRNNNGTWEVEVR, the “folding stability dG” value worked out at 0.133 kcal/mol.

Consider TYTYKLTDEEASRRWEDEWRNRGYDVRVRNNNGTWEVEVR, for which the “folding stability dG” value worked out at 1.36 kcal/mol.

For the variant TYTYKLTDEEASRRNEDEWRNRGYDVRVRNNNGTWEVEVR, the “folding stability dG” value amounted to 0.072 kcal/mol.

For the variant TYTYKLTDEEASRRVEDEWRNRGYDVRVRNNNGTWEVEVR, the “folding stability dG” value is 2.21 kcal/mol.

Turning to TYTYKLTDEEASRRYEDEWRNRGYDVRVRNNNGTWEVEVR, the “folding stability dG” value is 1.4 kcal/mol.

In the case of TYTYKLTDEEASRRFEDEWRNRGYDVRVRNNNGTWEVEVR, the “folding stability dG” value turned out to be 1.85 kcal/mol.

In the case of TYTYKLTDEEASRRDEDEWRNRGYDVRVRNNNGTWEVEVR, the “folding stability dG” value came out at 0.605 kcal/mol.

For the variant TYTYKLTDEEASRREEDEWRNRGYDVRVRNNNGTWEVEVR, the “folding stability dG” value came to 0.824 kcal/mol.

For TYTYKLTDEEASRRGEDEWRNRGYDVRVRNNNGTWEVEVR, the “folding stability dG” value is -0.371 kcal/mol.

For TYTYKLTDEEASRRLEDEWRNRGYDVRVRNNNGTWEVEVR, the “folding stability dG” value worked out at 2.46 kcal/mol.

As to TYTYKLTDEEASRRPEDEWRNRGYDVRVRNNNGTWEVEVR, the “folding stability dG” value is -0.743 kcal/mol.

Take TYTYKLTDEEASRRTEDEWRNRGYDVRVRNNNGTWEVEVR: the “folding stability dG” value amounted to 1.43 kcal/mol.

As for TYTYKLTDEEASRRIEDEWRNRGYDVRVRNNNGTWEVEVR, the “folding stability dG” value came to 2.2 kcal/mol.

Regarding TYTYKLTDEEASRRREDEWRNRGYDVRVRNNNGTWEVEVR, the “folding stability dG” value is 0.442 kcal/mol.

As for TYTYKLTDEEASRRHEDEWRNRGYDVRVRNNNGTWEVEVR, the “folding stability dG” value is 1.43 kcal/mol.

Turning to TYTYKLTDEEASRRMEDEWRNRGYDVRVRNNNGTWEVEVR, the “folding stability dG” value came out at 2.13 kcal/mol.

With TYTYKLTDEEASRRKEDEWRNRGYDVRVRNNNGTWEVEVR, the “folding stability dG” value came out at 1.37 kcal/mol.

In the case of TYTYKLTDEEASRRQEDEWRNRGYDVRVRNNNGTWEVEVR, the “folding stability dG” value is 0.788 kcal/mol.

Regarding TYTYKLTDEEASRRSEDEWRNRGYDVRVRNNNGTWEVEVR, the “folding stability dG” value amounted to 0.658 kcal/mol.

For the origin of these results see the MegaScale stability set (Tsuboyama et al. 2023).
